# Experimental data published in patent publication US20200024330A1.
# Numbering of substitutions follows the chain as printed.
# B1: PGT-128 (antibody, V domains shown)
# VH: QPQLQESGPTLVEASETLSLTCAVSGDSTAACNSFWGWVRQPPGKGLEWVGSLSHCASYWNRGWTYHNPSLKSRLTLALDTPKNLVFLKLNSVTAADTATYYCARFGGEVLRYTDWPKPAWVDLWGRGTLVTVSS
# VL: QSALTQPPSASGSPGQSITISCTGTSNNFVSWYQQHAGKAPKLVIYDVNKRPSGVPDRFSGSKSGNTASLTVSGLQTDDEAVYYCGSLVGNWDVIFGGGTKLTVL
# B2: PGT-125 (antibody, V domains shown)
# VH: QSQLQESGPRLVEASETLSLTCNVSGESTGACTYFWGWVRQAPGKGLEWIGSLSHCQSFWGSGWTFHNPSLKSRLTISLDTPKNQVFLKLTSLTAADTATYYCARFDGEVLVYNHWPKPAWVDLWGRGIPVTVSS
# VL: QSALTQPPSASGSPGQSITISCNGTATNFVSWYQQFPDKAPKLIIFGVDKRPPGVPDRFSGSRSGTTASLTVSRLQTDDEAVYYCGSLVGNWDVIFGGGTTLTVL
# B3: PGT-126 (antibody, V domains shown)
# VH: QPQLQESGPGLVEASETLSLTCTVSGDSTAACDYFWGWVRQPPGKGLEWIGGLSHCAGYYNTGWTYHNPSLKSRLTISLDTPKNQVFLKLNSVTAADTAIYYCARFDGEVLVYHDWPKPAWVDLWGRGTLVTVSS
# VL: B1 VL with T19S, N28R, A37P, D47G, G86S
# B4: PGT-127 (antibody, V domains shown)
# VH: QPQLQESGPGLVEASETLSLTCTVSGDSTGRCNYFWGWVRQPPGKGLEWIGSLSHCRSYYNTDWTYHNPSLKSRLTISLDTPKNQVFLRLTSVTAADTATYYCARFGGEVLVYRDWPKPAWVDLWGRGTLVVTVS
# VL: B1 VL with H36Y, A37P, D47E, N66S, T77A, A81G, G86S
# B5: PGT-130 (antibody, V domains shown)
# VH: QVQLQESGPGLVKPAETLSLTCSVSGESINTGHYYWGWVRQVPGKGLEWIGHIHYTTAVLHNPSLKSRLTIKIYTLRNQITLRLSNVTAADTAVYHCVRSGGDILYYYEWQKPHWFSPWGPGIHVTVSS
# VL: QSALTQPPSASGSLGQSVTISCNGTSSDIGGWNFVSWYQQFPGRAPRLIIFEVNKRPSGVPGRFSGSKSGNSASLTVSGLQSDDEGQYFCSSLFGRWDVVFGGGTKLTVL
# B6: PGT-131 (antibody, V domains shown)
# VH: QVQLQESGPGLVKPSETLSLTCTVSGDSINTGHHYWGWVRQVPGKGPEWIAHIHYNTAVLHNPALKSRVTISIFTLKNLITLSLSNVTAADTAVYFCVRSGGDILYYIEWQKPHWFYPWGPGILVTVSS
# VL: QSALTQPPSASGSLGQSLTISCSGTGSDIGSWNFVSWYQQFPGRAPNLIIFEVNRRRSGVPDRFSGSKSGNTASLTVSGLRSEDEAEYFCSSLSGRWDIVFGGGTKVTVL
# Molecular target: JR-FL gp120 ΔV3 (HIV-1 (isolate JR-FL))
# Assay: ELISA on coated gp120; EC50 by nonlinear regression
row,Binder,EC50
1,B1,7.8 µg/mL

# Molecular target: HIV-1 Env of isolate MGRM-A-003 (HIV-1)
# Assay: cell-based or functional assay
row,Binder,"IC50 (µg/mL), pseudovirus neutralization"
1,B2,> 50 µg/mL
2,B3,> 50 µg/mL
3,B4,> 50 µg/mL

# Molecular target: HIV-1 Env of isolate 92WR020 (HIV-1)
# Assay: cell-based or functional assay
row,Binder,"IC50 (µg/mL), pseudovirus neutralization"
1,B2,0.004 µg/mL
2,B3,0.006 µg/mL
3,B4,0.01 µg/mL

# Molecular target: HIV-1 Env of isolate MGRM-A-008 (HIV-1)
# Assay: cell-based or functional assay
row,Binder,"IC50 (µg/mL), pseudovirus neutralization"
1,B2,> 50 µg/mL
2,B3,> 50 µg/mL
3,B4,> 50 µg/mL

# Molecular target: HIV-1 Env of isolate MGRM-A-011 (HIV-1)
# Assay: cell-based or functional assay
row,Binder,"IC50 (µg/mL), pseudovirus neutralization"
1,B2,> 50 µg/mL
2,B3,> 50 µg/mL
3,B4,> 50 µg/mL

# Molecular target: HIV-1 94UG103 envelope glycoprotein (Env) (HIV-1)
# Assay: cell-based or functional assay
row,Binder,IC50 neutralization
1,B2,0.0124 µg/mL
2,B5,0.635 µg/mL
3,B3,0.0091 µg/mL

# Molecular target: HIV-1 Env of isolate MGRM-A-013 (HIV-1)
# Assay: cell-based or functional assay
row,Binder,"IC50 (µg/mL), pseudovirus neutralization"
1,B2,0.014 µg/mL
2,B3,0.006 µg/mL
3,B4,0.029 µg/mL

# Molecular target: HIV-1 JRFL envelope glycoprotein (Env) (HIV-1)
# Assay: cell-based or functional assay
row,Binder,IC50 neutralization
1,B2,0.0156 µg/mL
2,B5,0.0346 µg/mL
3,B3,0.014 µg/mL

# Molecular target: HIV-1 Env of isolate 93WR029 (HIV-1)
# Assay: cell-based or functional assay
row,Binder,"IC50 (µg/mL), pseudovirus neutralization"
1,B2,> 50 µg/mL
2,B3,> 50 µg/mL
3,B4,> 50 µg/mL

# Molecular target: HIV-1 Env of isolate MGRM-AE-002 (HIV-1)
# Assay: cell-based or functional assay
row,Binder,"IC50 (µg/mL), pseudovirus neutralization"
1,B2,> 50 µg/mL
2,B3,> 50 µg/mL
3,B4,> 50 µg/mL

# Molecular target: HIV-1 JRCSF envelope glycoprotein (Env) (HIV-1) (UniProt P20871)
# Assay: cell-based or functional assay
row,Binder,IC50 neutralization
1,B2,0.006 µg/mL
2,B5,0.0089 µg/mL
3,B3,0.0061 µg/mL

# Molecular target: HIV-1 Env of isolate MGRM-AE-003 (HIV-1)
# Assay: cell-based or functional assay
row,Binder,"IC50 (µg/mL), pseudovirus neutralization"
1,B2,0.092 µg/mL
2,B3,> 50 µg/mL
3,B4,> 50 µg/mL

# Molecular target: HIV-1 Env of isolate 93UG077 (HIV-1)
# Assay: cell-based or functional assay
row,Binder,"IC50 (µg/mL), pseudovirus neutralization"
1,B2,0.012 µg/mL
2,B3,0.02 µg/mL
3,B4,0.055 µg/mL

# Molecular target: HIV-1 Env of isolate MGRM-A-014 (HIV-1)
# Assay: cell-based or functional assay
row,Binder,"IC50 (µg/mL), pseudovirus neutralization"
1,B2,13.9 µg/mL
2,B3,0.01 µg/mL
3,B4,0.04 µg/mL

# Molecular target: HIV-1 Env of isolate MGRM-A-012 (HIV-1)
# Assay: cell-based or functional assay
row,Binder,"IC50 (µg/mL), pseudovirus neutralization"
1,B2,0.177 µg/mL
2,B3,0.097 µg/mL
3,B4,0.105 µg/mL

# Molecular target: HIV-1 Env of isolate 92UG037 (HIV-1)
# Assay: cell-based or functional assay
row,Binder,"IC50 (µg/mL), pseudovirus neutralization"
1,B2,0.005 µg/mL
2,B3,0.011 µg/mL
3,B4,0.014 µg/mL

# Molecular target: HIV-1 Env of isolate MGRM-A-005 (HIV-1)
# Assay: cell-based or functional assay
row,Binder,"IC50 (µg/mL), pseudovirus neutralization"
1,B2,> 50 µg/mL
2,B3,> 50 µg/mL
3,B4,> 50 µg/mL

# Molecular target: HIV-1 MGRM-C-026 envelope glycoprotein (Env) (HIV-1)
# Assay: cell-based or functional assay
row,Binder,IC50 neutralization
1,B2,0.0106 µg/mL
2,B5,0.0173 µg/mL
3,B3,0.0076 µg/mL

# Molecular target: HIV-1 MGRM-C-027 envelope glycoprotein (Env) (HIV-1)
# Assay: cell-based or functional assay
row,Binder,IC50 neutralization
1,B2,> 10 µg/mL
2,B5,0.0052 µg/mL
3,B3,1.14 µg/mL

# Molecular target: Env of the clade AE HIV-1 pseudoviruses of the cross-clade 162-pseudovirus panel (n = 10)
# Assay: cell-based or functional assay
row,Binder,Median IC50 against viruses neutralized with an IC50 <50 µg/ml
1,B2,0.03 µg/mL
2,B5,0.17 µg/mL
3,B6,0.08 µg/mL
4,B3,1.77 µg/mL
5,B1,0.05 µg/mL

# Molecular target: HIV-1 JR-CSF Env G324A (HIV-1 isolate JR-CSF) (UniProt P20871)
# Assay: cell-based or functional assay
row,Binder,Fold IC50 increase relative to wild-type
1,B2,1.7 fold
2,B5,> 50 fold
3,B3,3.3 fold

# Molecular target: HIV-1 Env of isolate VLGCA1 (HIV-1)
# Assay: cell-based or functional assay
row,Binder,"IC50 (µg/mL), pseudovirus neutralization"
1,B2,0.078 µg/mL
2,B3,> 50 µg/mL
3,B4,> 50 µg/mL

# Molecular target: HIV-1 Env of isolate MGRM-A-006 (HIV-1)
# Assay: cell-based or functional assay
row,Binder,"IC50 (µg/mL), pseudovirus neutralization"
1,B2,> 50 µg/mL
2,B3,> 50 µg/mL
3,B4,> 50 µg/mL

# Molecular target: HIV-1 Env of isolate MGRM-AE-001 (HIV-1)
# Assay: cell-based or functional assay
row,Binder,"IC50 (µg/mL), pseudovirus neutralization"
1,B2,2.95 µg/mL
2,B3,9.68 µg/mL
3,B4,> 50 µg/mL

# Molecular target: HIV-1 Env of isolate 92UG031 (HIV-1)
# Assay: cell-based or functional assay
row,Binder,"IC50 (µg/mL), pseudovirus neutralization"
1,B2,> 50 µg/mL
2,B3,> 50 µg/mL
3,B4,> 50 µg/mL

# Molecular target: HIV-1 92RW020 envelope glycoprotein (Env) (HIV-1)
# Assay: cell-based or functional assay
row,Binder,IC50 neutralization
1,B2,0.0028 µg/mL
2,B5,0.014 µg/mL
3,B3,0.0046 µg/mL

# Molecular target: HIV-1 APV13 envelope glycoprotein (Env) (HIV-1)
# Assay: cell-based or functional assay
row,Binder,IC50 neutralization
1,B2,0.0128 µg/mL
2,B5,0.0345 µg/mL
3,B3,0.012 µg/mL

# Molecular target: HIV-1 93IN905 envelope glycoprotein (Env) (HIV-1)
# Assay: cell-based or functional assay
row,Binder,IC50 neutralization
1,B2,0.0137 µg/mL
2,B5,0.0182 µg/mL
3,B3,0.0194 µg/mL

# Molecular target: HIV-1 APV17 envelope glycoprotein (Env) (HIV-1)
# Assay: cell-based or functional assay
row,Binder,IC50 neutralization
1,B2,7.31 µg/mL
2,B5,> 10 µg/mL
3,B3,0.501 µg/mL

# Molecular target: HIV-1 Env of isolate MGRM-A-009 (HIV-1)
# Assay: cell-based or functional assay
row,Binder,"IC50 (µg/mL), pseudovirus neutralization"
1,B2,0.009 µg/mL
2,B3,0.004 µg/mL
3,B4,0.013 µg/mL

# Molecular target: HIV-1 93UG077 envelope glycoprotein (Env) (HIV-1)
# Assay: cell-based or functional assay
row,Binder,IC50 neutralization
1,B2,0.0262 µg/mL
2,B5,> 10 µg/mL
3,B3,0.0256 µg/mL

# Molecular target: HIV-1 APV6 envelope glycoprotein (Env) (HIV-1)
# Assay: cell-based or functional assay
row,Binder,IC50 neutralization
1,B2,0.0359 µg/mL
2,B5,> 10 µg/mL
3,B3,0.0249 µg/mL

# Molecular target: HIV-1 Env of isolate 92WR024 (HIV-1)
# Assay: cell-based or functional assay
row,Binder,"IC50 (µg/mL), pseudovirus neutralization"
1,B2,35.5 µg/mL
2,B3,42 µg/mL
3,B4,> 50 µg/mL

# Molecular target: HIV-1 Env of isolate 92WR026 (HIV-1)
# Assay: cell-based or functional assay
row,Binder,"IC50 (µg/mL), pseudovirus neutralization"
1,B2,0.007 µg/mL
2,B3,0.008 µg/mL
3,B4,0.024 µg/mL

# Molecular target: HIV-1 Env of isolate 94KE105 (HIV-1)
# Assay: cell-based or functional assay
row,Binder,"IC50 (µg/mL), pseudovirus neutralization"
1,B2,0.004 µg/mL
2,B3,0.006 µg/mL
3,B4,0.023 µg/mL

# Molecular target: HIV-1 MGRM-A-010 envelope glycoprotein (Env) (HIV-1)
# Assay: cell-based or functional assay
row,Binder,IC50 neutralization
1,B2,0.0055 µg/mL
2,B5,0.0054 µg/mL
3,B3,0.0033 µg/mL

# Molecular target: HIV-1 Env of isolate MGRM-A-001 (HIV-1)
# Assay: cell-based or functional assay
row,Binder,"IC50 (µg/mL), pseudovirus neutralization"
1,B2,12.4 µg/mL
2,B3,> 50 µg/mL
3,B4,> 50 µg/mL

# Molecular target: HIV-1 Env of isolate MGRM-A-004 (HIV-1)
# Assay: cell-based or functional assay
row,Binder,"IC50 (µg/mL), pseudovirus neutralization"
1,B2,> 50 µg/mL
2,B3,> 50 µg/mL
3,B4,> 50 µg/mL
